Results published in patent publication US20220170038A1 (COMMONWEALTH SCIENTIFIC INDUSTRIAL RESEARCH ORGANISATION, published 2022).

B3: scar9::GG::NifU::TS (MPP-processed product of the MTP-FAγ51::NifU::TwinStrep fusion polypeptide encoded by SN166) (other)
chain: not shown
notes: Expressed in N. benthamiana leaves with mitochondrial targeting; N-terminal analysis and the tryptic peptide ISTQVVR confirmed cleavage at the intended MPP site; SEC indicated a heterotetramer of 2 NifS and 2 NifU; also called scar9-NifU::TS; scar9-NifU-TwinStrep

What was measured:
[1] = molecular target: B3; experiment: StrepTactinXT pull-down of NifU::TS from N. benthamiana leaves co-infiltrated with SN31 and SN166, anaerobic non-denaturing extraction; anti-HA Western blot of the eluate
[2] = molecular target: T1, scar9::GG::NifU::HA (MPP-processed product of the MTP-FAγ51::NifU::HA fusion polypeptide encoded by SN32) (Klebsiella oxytoca, UniProt P05343 1-274); experiment: StrepTactinXT pull-down of NifS::TS from leaves co-infiltrated with SN231 and SN32; anti-Strep and anti-HA Western blots
T1 construct: also called scar9::NifU::HA; processed NifU
T1 sequence: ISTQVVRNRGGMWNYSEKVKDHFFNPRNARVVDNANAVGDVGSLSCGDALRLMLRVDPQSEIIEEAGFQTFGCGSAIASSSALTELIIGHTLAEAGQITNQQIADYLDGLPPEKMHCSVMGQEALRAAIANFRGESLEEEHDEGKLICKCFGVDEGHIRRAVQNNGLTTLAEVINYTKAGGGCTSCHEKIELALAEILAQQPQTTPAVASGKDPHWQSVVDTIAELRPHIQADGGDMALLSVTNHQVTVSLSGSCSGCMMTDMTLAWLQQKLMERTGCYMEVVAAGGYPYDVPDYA

[3] = molecular target: T2, scar9::GG::NifS::HA (MPP-processed product of the MTP-FAγ51::NifS::HA fusion polypeptide encoded by SN31) (Klebsiella oxytoca, UniProt P05344 1-397); experiment: StrepTactinXT pull-down of NifU::TS from leaves co-infiltrated with SN31 and SN166, first purification; anti-Strep and anti-HA Western blots
T2 construct: This processed form was the one found in the eluate with NifU::TS; also called scar9-NifS::HA; processed NifS
T2 sequence: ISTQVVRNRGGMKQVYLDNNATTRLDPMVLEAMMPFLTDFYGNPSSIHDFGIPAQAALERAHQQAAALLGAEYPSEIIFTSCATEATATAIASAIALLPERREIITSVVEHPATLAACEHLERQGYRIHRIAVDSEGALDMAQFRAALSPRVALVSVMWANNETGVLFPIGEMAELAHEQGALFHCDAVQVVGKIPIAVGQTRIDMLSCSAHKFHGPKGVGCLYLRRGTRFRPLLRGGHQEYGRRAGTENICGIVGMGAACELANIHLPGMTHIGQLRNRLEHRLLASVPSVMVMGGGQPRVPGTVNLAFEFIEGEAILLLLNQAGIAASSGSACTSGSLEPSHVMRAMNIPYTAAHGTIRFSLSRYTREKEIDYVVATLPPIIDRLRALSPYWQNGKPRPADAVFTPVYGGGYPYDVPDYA

B1: MTP-FAγ51::NifS::HA fusion polypeptide encoded by SN31, unprocessed form (enzyme)
chain: MMAMAVFRREGRRLLPSIAARPIAAIRSPLSSDQEEGLLGVRSISTQVVRNRGGMKQVYLDNNATTRLDPMVLEAMMPFLTDFYGNPSSIHDFGIPAQAALERAHQQAAALLGAEYPSEIIFTSCATEATATAIASAIALLPERREIITSVVEHPATLAACEHLERQGYRIHRIAVDSEGALDMAQFRAALSPRVALVSVMWANNETGVLFPIGEMAELAHEQGALFHCDAVQVVGKIPIAVGQTRIDMLSCSAHKFHGPKGVGCLYLRRGTRFRPLLRGGHQEYGRRAGTENICGIVGMGAACELANIHLPGMTHIGQLRNRLEHRLLASVPSVMVMGGGQPRVPGTVNLAFEFIEGEAILLLLNQAGIAASSGSACTSGSLEPSHVMRAMNIPYTAAHGTIRFSLSRYTREKEIDYVVATLPPIIDRLRALSPYWQNGKPRPADAVFTPVYGGGYPYDVPDYA
notes: Present in the soluble input sample but not detected in the eluate; also called unprocessed NifS; unprocessed MTP-FAγ51::NifS
B1: no binding [1].

B2: scar9::NifS::TS (MPP-processed product of the MTP-FAγ51::NifS::TwinStrep fusion polypeptide encoded by SN231) (enzyme)
chain: not shown
notes: Bait in the reverse pull-down; the text names scar9::NifS::TS in the eluate; also called MTP-FAγ51::NifS::TS
B2: binds [2].

B3: binds [3].
